Assay results taken from patent US20040161448.

Columns and labels:
[1] = target: T1, Soybean Kunitz Trypsin Inhibitor (UniProt P01070)
T1 sequence: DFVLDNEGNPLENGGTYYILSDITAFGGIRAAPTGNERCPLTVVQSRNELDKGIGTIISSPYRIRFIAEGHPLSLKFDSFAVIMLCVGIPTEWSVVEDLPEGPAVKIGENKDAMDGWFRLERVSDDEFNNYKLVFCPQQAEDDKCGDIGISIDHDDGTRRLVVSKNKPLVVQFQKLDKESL

soybean agglutinin (SBA) = soybean agglutinin (SBA) (UniProt P05046)
[2] = target: T2, soybean Bowman-Birk Inhibitor (UniProt P01055)
T2 sequence: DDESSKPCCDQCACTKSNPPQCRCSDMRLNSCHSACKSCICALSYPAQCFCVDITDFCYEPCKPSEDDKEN

soybean agglutinin (SBA), sequence (P05046 33-285): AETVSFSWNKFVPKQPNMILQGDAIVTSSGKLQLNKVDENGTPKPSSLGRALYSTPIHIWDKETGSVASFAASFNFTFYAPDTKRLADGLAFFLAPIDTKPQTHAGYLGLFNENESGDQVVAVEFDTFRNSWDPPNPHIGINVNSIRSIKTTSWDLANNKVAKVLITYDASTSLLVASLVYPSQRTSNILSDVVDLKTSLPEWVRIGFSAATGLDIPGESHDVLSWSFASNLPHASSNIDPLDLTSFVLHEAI

Question: “protease derived from Bacillus sp. NCIMB 40484” was tested. Which % of anti-nutritional factor degraded [1] did it give?
Answer: The % of anti-nutritional factor degraded was 100%.

Question: And the % of anti-nutritional factor degraded (soybean agglutinin (SBA))?
Answer: Its % of anti-nutritional factor degraded is 21%.

Question: What about the % of anti-nutritional factor degraded [2] of the same substance?
Answer: The % of anti-nutritional factor degraded was 41%.
